Reference: patent US20190233512A1 (SUTRO BIOPHARMA, published 2019)
Where a chain is given by its changes, count along the chain named.

B1: SRP1848-A01 (antibody, V domains shown)
VH: EVQLVESGGGLVQPGGSLRLSCAASGFNITRYSIHWVRQAPGKGLEWVAGILPESGGTSYADSVKGRFTISADTSKNTAYLQMNSLRAEDTAVYYCARHIYPWDWFSNYVLDYWGQGTLVTVSS
VL: not shown
notes: VH/VL only; Fc-bearing IgG format with trastuzumab LC, HIS/FLAG-tagged, cell-free expressed; constant regions not tied; also called Antibody 1
B2: SRP1848-G04 (antibody, V domains shown)
VH: EVQLVESGGGLVQPGGSLRLSCAASGFNIHSTDIHWVRQAPGKGLEWVAYITPAGGATFYADSVKGRFTISADTSKNTAYLQMNSLRAEDTAVYYCARYPYWFAGYMDYWGQGTLVTVSS
VL: not shown
notes: VH/VL only; Fc-bearing IgG format with trastuzumab LC, HIS/FLAG-tagged, cell-free expressed; constant regions not tied; also called Antibody 49
B3: SRP1848-G06 (antibody, V domains shown)
VH: B2 VH with H30R, F59Y, S63N, Y99Q
VL: not shown
notes: VH/VL only; Fc-bearing IgG format with trastuzumab LC, HIS/FLAG-tagged, cell-free expressed; constant regions not tied; also called Antibody 50
B4: SRP1848-G07 (antibody, V domains shown)
VH: B2 VH with F59W, Y101F
VL: not shown
notes: VH/VL only; Fc-bearing IgG format with trastuzumab LC, HIS/FLAG-tagged, cell-free expressed; constant regions not tied; also called Antibody 51
B5: SRP1848-G10 (antibody, V domains shown)
VH: B2 VH with G16S, H30R, F59Y, M107I
VL: not shown
notes: VH/VL only; Fc-bearing IgG format with trastuzumab LC, HIS/FLAG-tagged, cell-free expressed; constant regions not tied; also called Antibody 53
B6: SRP1848-G11 (antibody, V domains shown)
VH: B2 VH with H30S, F59W, A104S
VL: not shown
notes: VH/VL only; Fc-bearing IgG format with trastuzumab LC, HIS/FLAG-tagged, cell-free expressed; constant regions not tied; also called Antibody 54
B7: SRP1848-G09 (antibody, V domains shown)
VH: B2 VH with H30R, S31G, Y99H, P100E, A104S
VL: not shown
notes: VH/VL only; Fc-bearing IgG format with trastuzumab LC, HIS/FLAG-tagged, cell-free expressed; constant regions not tied; also called Antibody 52
B8: SRP1848-E06 (antibody, V domains shown)
VH: EVQLVESGGGLVQPSGSLRLSCAASGFNINRYYIHWVRQAPGKGLEWVGGITPNDGYTDYADSVEGRFTTSADTSKNTAYLQMNSLRAEDTAVYYCARGTWSWPSGHSYYLDYWGQGTLVTVSS
VL: not shown
notes: VH/VL only; Fc-bearing IgG format with trastuzumab LC, HIS/FLAG-tagged, cell-free expressed; constant regions not tied; also called Antibody 35
B9: SRP1848-D03 (antibody, V domains shown)
VH: EVQLVESGGGVVQPGGSLRLSCAASGFNIRYFSIHWVRQAPGKGLEWVGDIFPNDGSTDYADSVKGRFTISADTSKNTAYLQMNSLRAEETAVYYCARGHWSWPSGYWYYLDYWGQGTLVTVSS
VL: not shown
notes: VH/VL only; Fc-bearing IgG format with trastuzumab LC, HIS/FLAG-tagged, cell-free expressed; constant regions not tied; also called Antibody 25
B10: SRP1848-H01 (antibody, V domains shown)
VH: B9 VH with V11L, Y31T, F32Q, V48I, N54I, S57I, E90D, H100S, Y107M, W108D
VL: not shown
notes: trastuzumab light chain; captured through Fc in SPR (IgG format); HIS- and FLAG-tagged; also called Antibody 55
B11: SRP2060-E10 (antibody, V domains shown)
VH: EVQLLESGGGLVQPGGSLRLSCAFSGFSLSTFGMGVGWVRQAPGKGLEWVSHIWWDDDKYYHPALKGRFTISKDNSKNTVYLQMNSLRAEDTAVYYCGRNHFPHYYGSSHWYFNVWGQGTTVTVSS
VL: EIVMTQSPATLSLSPGERATLSCKASQDINSYLSWYQQKPGQAPRLLIYRANRLVDGIPARFSGSGSGTDYTLTISSLEPEDFAVYYCLQYDEFPYTFGGGTKVEIK
B12: SRP2060-B01 (antibody, V domains shown)
VH: B11 VH with F24L, P43T, Y81H
VL: DIQMTQSPSTLSASVGDRVTITCKASQDINSYLSWYQQKPGKAPKLLIYRANRLVDGVPSRFSGSGSGTEFTLTISSLQPDDFATYYCLQYDEFPYTFGGGTKVEIK
B13: SRP2060-E05 (antibody, V domains shown)
VH: B11 VH with I71V
VL: B11 VL
B14: SRP2060-A06 (antibody, V domains shown)
VH: B11 VH with S51G, H62Y, N114D
VL: B12 VL

The binders below were run against T1, Cynomolgus folate receptor alpha (cynomolgus monkey, UniProt P15328 25-234 (human entry)) (assay: FACS, CHO-cFOLR1 cells).
T1 construct: Stably expressed on CHO cells (CHO-cFOLR1); also called cynomolgus FOLR1; CHO-cFOLR1
T1 sequence (P15328 other isoform, or with tags, fused parts or gaps limits assumed): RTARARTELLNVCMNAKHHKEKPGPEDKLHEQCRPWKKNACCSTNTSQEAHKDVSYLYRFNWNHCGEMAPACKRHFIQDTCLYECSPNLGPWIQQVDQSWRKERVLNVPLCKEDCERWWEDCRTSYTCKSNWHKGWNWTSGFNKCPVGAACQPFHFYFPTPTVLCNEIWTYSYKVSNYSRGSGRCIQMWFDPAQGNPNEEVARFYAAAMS

Bmax [MFI] | Binder
22600 | B1
12500 | B2
12800 | B3
13700 | B4
14200 | B5
11800 | B6
17700 | B7
15800 | B8
14100 | B9

What follows are binders tested against T2, Human folate receptor alpha (hFOLR1) (human, UniProt P15328 25-234) (assay: FACS, CHO-hFOLR1 cells).
T2 construct: Stably expressed on CHO cells (CHO-hFOLR1) for flow cytometry; endogenous on FOLR1-positive KB and Igrov1 cells in the killing assay; also called human FOLR1; FolRα
T2 sequence (P15328 25-234 limits assumed): as the sequence (P15328 other isoform, or with tags, fused parts or gaps limits assumed) above, with T2I, R4W, K37R, R117Q, P146A, Y171H counted along it
Method: CHO cells were transfected to stably express human (CHO-hFOLR1), cynomolgus (CHO-cFOLR1), or mouse (CHO-mFOLR1) target molecule FOLR1 on the cell surface. Parental CHO cells were used as a negative control to determine background binding levels. Parental CHO and stably transfected CHO-hFOLR1, CHO-cFOLR1, and CHO-mFOLR1 cells were cultured in Ham's F-12: high glucose DMEM (50:50) (Corning, Cellgro-Mediatech) supplemented with 10% heat-inactivated fetal bovine serum (Corning, Cellgro-Mediatech), 1% Penicillin/Streptomycin (Corning, Cellgro-Mediatech) and 2 mmol/L-glutamax (Life Technology).
A mixture of fluoresecent-labeled parental CHO cells and unlabeled CHO-hFOLRlcells were prepared as follows. Parental CHO cells were washed twice in PBS and incubated in PBS containing with 1 nM CellTrace™ Oregon Green488® (Life Technologies) at 37° C. for 30 minutes. Labeled parental CHO cells were then washed 2× with Ham's F-12 media and 2× with FACS buffer (PBS with 1% bovine serum albumin). Unlabeled CHO-hFOLR1 cells were similarly washed and prepared. Labeled parental CHO and unlabeled CHO-hFOLR1 cells were combined at 1:1 ratio and seeded at 50 μL per well (200,000 cells per well) in 96 well polypropylene plates. Cells were mixed with 50 μL of test antibodies (i.e., anti-FOLR1 variants) serially diluted in FACS buffer and incubated on ice for 60 mins. Cells were washed with FACS buffer and incubated on ice for 60 mins with 100 μL FACS buffer containing 2.5 μg/mL R-Phycoerythrin-conjugated goat anti-Human IgG (Jackson ImmunoResearch Laboratories, West Grove, Pa.). Cells were washed twice with FACS buffer, fixed in 2% paraformaldehyde in PBS (Santa Cruz Biotechnology; Dallas, Tex.) for 10 mins on ice in the dark, and analyzed using the BD LSR II Flow Cytometer (BD Biosciences; San Jose, Calif.). Data were analyzed using FlowJo® software (FlowJo, LLC; Ashland, Oreg.) to determine mean fluorescence intensities. Binding constants were calculated using the statistical software, GraphPad Prism (GraphPad Software; La Jolla, Calif.) using the nonlinear regression equation, one site-specific binding with Hill slope. Secondary antibody alone was used as a control, in addition to measuring non-specific antibody binding to CHO parental cells.

Bmax [MFI] | Binder
25900 | B1
25200 | B2
25800 | B3
24900 | B4
25300 | B5
27200 | B6
25100 | B7
25600 | B8
26000 | B9

The binders below were run against T3, human FOLR1-HIS (human, UniProt P15328 25-234) (assay: SPR (Biacore), antibody captured on anti-Fc, FOLR1-HIS as analyte, 25 C).
T3 construct: Soluble analyte of the Biacore assay; also called human folate receptor alpha; hFOLR1; not shown: HIS tag
T3 sequence (P15328 25-234 limits assumed): as the sequence (P15328 other isoform, or with tags, fused parts or gaps limits assumed) above, with T2I, R4W, K37R, R117Q, P146A, Y171H counted along it
Method: Anti-Fc polyclonal antibodies were immobilized onto a CM5 chip (GE Life Sciences) using amine coupling chemistry (from Amine Coupling Kit, GE Life Sciences). The immobilization steps were carried out at a flow rate of 25 μL/min in 1×HBS-EP+buffer (GE Life Sciences; 10× Stock diluted before use). The sensor surfaces were activated for 7 min with a mixture of N-hydroxysuccinimide (NHS, 0.05 M) and 1-ethyl-3-(3-dimethylaminopropyl)-carbodiimide (EDC, 0.2 M). The anti-Fc polyclonal antibodies were injected over all 4 flow cells at a concentration of 25 μg/mL in 10 mM sodium acetate, pH 4.5, for 7 min. Ethanolamine (1 M, pH 8.5) was injected for 7 min to block any remaining activated groups.
Off-rate and kinetic binding experiments were performed at 25° C. using 1×HBS-EP+buffer. Test and control antibodies were injected over the anti-Fc surface at concentrations of 5-10 μg/mL for 12 seconds at a flow rate of 10 μL/min on flow cells 2, 3 and 4, followed by a buffer wash for 30 seconds at the same flow rate.
The data were fit with the Biacore T200 Evaluation software, using a 1:1 Langmuir binding model. KD (affinity, nM) was determined as a ratio of the kinetic rate constants calculated from the fits of the association and dissociation phases.

koff [s⁻¹] | kon [M⁻¹ s⁻¹] | Binder
0.00139 | 659000 | B10

Each binder was assayed against FOLR1 on FOLR1-positive Igrov1 cells (UniProt P15328 25-234, limits assumed) (assay: cell-based or functional assay).
FOLR1 on FOLR1-positive Igrov1 cells, sequence (P15328 25-234 limits assumed): as the sequence (P15328 other isoform, or with tags, fused parts or gaps limits assumed) above, with T2I, R4W, K37R, R117Q, P146A, Y171H counted along it

Binder | Igrov 2° Antibody Cell Killing, Nb-SC239: EC50 [nM] | Igrov 2° Antibody Cell Killing, Nb-SC239: span (%)
B11 | 0.061 | 68
B12 | 0.045 | 76
B13 | 0.22 | 71
B14 | 0.013 | 66

The binders below were run against T4, Murine folate receptor alpha (mouse, UniProt P35846 25-232) (assay: FACS, CHO-mFOLR1 cells).
T4 construct: Stably expressed on CHO cells (CHO-mFOLR1); also called mouse FOLR1; CHO-mFOLR1
T4 sequence (P35846 25-232 limits assumed): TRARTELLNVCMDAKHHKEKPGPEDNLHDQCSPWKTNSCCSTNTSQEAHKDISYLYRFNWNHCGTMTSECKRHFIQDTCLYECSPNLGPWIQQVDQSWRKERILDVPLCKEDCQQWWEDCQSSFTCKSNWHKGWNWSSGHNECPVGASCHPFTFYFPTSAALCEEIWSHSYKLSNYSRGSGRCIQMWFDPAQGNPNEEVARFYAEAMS

Bmax [MFI] | Binder
16500 | B1
2000 | B2
1860 | B3
1980 | B4
2890 | B5
2740 | B6
2180 | B7
2350 | B8
3170 | B9
